Biological target: T1, 5-Fam-[…] (vesicular stomatitis virus)
T1 construct: also called fluorescent tracer peptide; fluorescent probe
Assay: fluorescence polarisation
Details: both partners purified

B1: Sec24a (△1–340) (domain or fragment)
chain: LSLQPEGLRVVNLLQERNMLPSTPLKPPVPNLHEDIQKLNCNPELFRCTLTSIPQTQALLNKAKLPLGLLLHPFKDLVQLPVVTSSTIVRCRSCRTYINPFVSFLDQRRWKCNLCYRVNDVPEEFLYNPLTRVYGEPHRRPEVQNATIEFMAPSEYMLRPPQPPVYLFVFDVSHNAVETGYLNSVCQSLLDNLDLLPGNTRTKIGFITFDSTIHFYGLQESLSQPQMLIVSDIEDVFIPMPENLLVNLNESKELVQDLLKTLPQMFTKTLETQSALGPALQAAFKLMSPTGGRMSVFQTQLPTLGVGALKPREEPNHRSSAKDIHMTPSTDFYKKLALDCSGQQVAVDLFLLSGQYSDLASLGCISRYSAGSVYYYPSYHHQHNPVQVQKLQKELQRYLTRKIGFEAVMRIRCTKGLSIHTFHGNFFVRSTDLLSLPNVNPDAGYAVQMSVEESLTDTQLVSFQSALLYTSSKGERRIRVHTLCLPVVSTLNDVFLGADVQAISGLLANMAVDRSMTASLSDARDALVNAVIDSLSAYRSSVLSNQQPGLMVPFSLRLFPLFVLALLKQKSFQTGTNARLDERIFAMCQVKNQPLVYLMLTTHPSLYRVDNLSDEGALNISDRTIPQPPILQLSVEKLSRDGAFLMDAGSVLMLWVGKNCTQNFLSQVLGVQNYASIPQPMTDLPELDTPESARIIAFISWLREQRPFFPILYVIRDESPMKANFLQNMIEDRTESALSYYEFLLHIQQQVNK
notes: Sec24a, H. sapiens, lacking residues 1–340 (△1–340); Purified alone for fluorescence polarization and as the complex with Sec23a for crystallography; also called human Sec24a; source: High Five insect cells (baculovirus), purified (HisTrap HP, HiTrap Q, Superdex 200); not shown: His6, N-terminal, cleaved
Kd: 14.2 µM

Reference: PMC5464768, “ER retention is imposed by COPII protein sorting and attenuated by 4-phenylbutyrate” (eLife, 2017)
